Test results from US20240342215A1 (Regeneron, published 2024).

B1: scFv-based CAR targeting human BCMA (SEQ ID NO: 101) (other)
chain: DIVLTQSPPSLAMSLGKRATISCRASESVTILGSHLIHWYQQKPGQPPTLLIQLASNVQTGVPARFSGSGSRTDFTLTIDPVEEDDVAVYYCLQSRTIPRTFGGGTKLEIKGSTSGSGKPGSGEGSTKGQIQLVQSGPELKKPGETVKISCKASGYTFTDYSINWVKRAPGKGLKWMGWINTETREPAYAYDFRGRFAFSLETSASTAYLQINNLKYEDTATYFCALDYSYAMDYWGQGTSVTVSSAAATTTPAPRPPTPAPTIASQPLSLRPEACRPAAGGAVHTRGLDFACDIYIWAPLAGTCGVLLLSLVITLYCKRGRKKLLYIFKQPFMRPVQTTQEEDGCSCRFPEEEEGGCELRVKFSRSADAPAYQQGQNQLYNELNLGRREEYDVLDKRRGRDPEMGGKPRRKNPQEGLYNELQKDKMAEAYSEIGMKGERRRGKGHDGLYQGLSTATKDTYDALHMQALPPR
notes: Chimeric antigen receptor on transduced T cells; also called anti-BCMA CAR; BCMA scFv CAR
B2: VHH-TCR with a VHH added to the TRA separated by a mu linker (LEKT)+G4S; TRB-P2A-CD33.VHH-mLNK.1xG4S-TRA (SEQ ID NO: 94) (TCR)
TCR beta: DSGVTQTPKHLITATGQRVTLRCSPRSGDLSVYWYQQSLDQGLQFLIQYYNGEERAKGNILERFSAQQFPDLHSELNLSSLELGDSALYFCASSGGDGDEQFFGPGTRLTVLEDLKNVFPPEVAVFEPSKAEIAHTQKATLVCLATGFYPDHVELSWWVNGKEVHSGVSTDPQPLKEQPALNDSRYCLSSRLRVSATFWQNPRNHFRCQVQFYGLSENDEWTQDRAKPVTQIVSAEAWGRADCGITSASYHQGVLSATILYEILLGKATLYAVLVSALVLMAMVKRKDSRG
TCR alpha: EVQLVESGGGEVQPGGSLRLSCAASRSSGIDVMGWYRQAPGKERELVAEISGVGDTNYAASLADRFTVSRDNAKNTVYLQMSSLRAEDTAVYYCNAHSFLDLVGAWGQGTLVTVKPLEKTGGGGSAQKITQTQPGMFVQEKEAVTLDCTYDTSDPSYGLFWYKQPSSGEMIFLIYQGSYDQQNATEGRYSLNFQKARKSANLVISASQLGDSAMYFCAMSGGYTGGFKTIFGAGTRLFVKANIQNPDPAVYQLRDSKSSDKSVCLFTDFDSQTNVSQSKDSDVYITDKTVLDMRSMDFKSNSAVAWSNKSDFACANAFNNSIIPEDTFFPSSDVPCDVKLVEKSFETDTNLNFQNLLVIVLRILLLKVAGFNLLMTLRLWSS
B3: MAGEA4-reactive, HLA-A2-restricted TCR embedded with an scFv targeting human BCMA and a 2xG4S linker between the scFv and Va; TRB-P2A-BCMA.scFv-2xG4S-TRA (SEQ … (TCR)
TCR beta: B2 TCR beta
TCR alpha: DIVLTQSPPSLAMSLGKRATISCRASESVTILGSHLIHWYQQKPGQPPTLLIQLASNVQTGVPARFSGSGSRTDFTLTIDPVEEDDVAVYYCLQSRTIPRTFGGGTKLEIKGSTSGSGKPGSGEGSTKGQIQLVQSGPELKKPGETVKISCKASGYTFTDYSINWVKRAPGKGLKWMGWINTETREPAYAYDFRGRFAFSLETSASTAYLQINNLKYEDTATYFCALDYSYAMDYWGQGTSVTVSSGGGGSGGGGSAQKITQTQPGMFVQEKEAVTLDCTYDTSDPSYGLFWYKQPSSGEMIFLIYQGSYDQQNATEGRYSLNFQKARKSANLVISASQLGDSAMYFCAMSGGYTGGFKTIFGAGTRLFVKANIQNPDPAVYQLRDSKSSDKSVCLFTDFDSQTNVSQSKDSDVYITDKTVLDMRSMDFKSNSAVAWSNKSDFACANAFNNSIIPEDTFFPSSDVPCDVKLVEKSFETDTNLNFQNLLVIVLRILLLKVAGFNLLMTLRLWSS
notes: also called scFv-TCR; BCMA ScFv TCR
B4: engineered dual-targeting TCR (VHH-TCR): MAGEA4-reactive, HLA-A2-restricted TCR embedded with a VHH targeting human CD33; TRB-P2A-CD33.VHH-mLNK-TRA (SEQ ID NO: … (TCR)
TCR beta: B2 TCR beta
TCR alpha: EVQLVESGGGEVQPGGSLRLSCAASRSSGIDVMGWYRQAPGKERELVAEISGVGDTNYAASLADRFTVSRDNAKNTVYLQMSSLRAEDTAVYYCNAHSFLDLVGAWGQGTLVTVKPLEKTAQKITQTQPGMFVQEKEAVTLDCTYDTSDPSYGLFWYKQPSSGEMIFLIYQGSYDQQNATEGRYSLNFQKARKSANLVISASQLGDSAMYFCAMSGGYTGGFKTIFGAGTRLFVKANIQNPDPAVYQLRDSKSSDKSVCLFTDFDSQTNVSQSKDSDVYITDKTVLDMRSMDFKSNSAVAWSNKSDFACANAFNNSIIPEDTFFPSSDVPCDVKLVEKSFETDTNLNFQNLLVIVLRILLLKVAGFNLLMTLRLWSS
B5: VHH-TCR with a VHH added to the TRA separated by a 2xG4S; TRB-P2A-CD33.VHH-2xG4S-TRA (SEQ ID NO: 96) (TCR)
TCR beta: B2 TCR beta
TCR alpha: EVQLVESGGGEVQPGGSLRLSCAASRSSGIDVMGWYRQAPGKERELVAEISGVGDTNYAASLADRFTVSRDNAKNTVYLQMSSLRAEDTAVYYCNAHSFLDLVGAWGQGTLVTVKPGGGGSGGGGSAQKITQTQPGMFVQEKEAVTLDCTYDTSDPSYGLFWYKQPSSGEMIFLIYQGSYDQQNATEGRYSLNFQKARKSANLVISASQLGDSAMYFCAMSGGYTGGFKTIFGAGTRLFVKANIQNPDPAVYQLRDSKSSDKSVCLFTDFDSQTNVSQSKDSDVYITDKTVLDMRSMDFKSNSAVAWSNKSDFACANAFNNSIIPEDTFFPSSDVPCDVKLVEKSFETDTNLNFQNLLVIVLRILLLKVAGFNLLMTLRLWSS
notes: also called VHH-TCR with 2G4S; VHH-TCR with two G4Ss
B6: MAGEA4-reactive, HLA-A2-restricted TCR embedded with tandem VHHs targeting human CD33 and CLL1; TRB-P2A-CLL1-CD33.VHH-mLNK.1xG4S-TRA (SEQ ID NO: 97) (TCR)
TCR beta: B2 TCR beta
TCR alpha: EVQLVESGGGEVQPGGSLRLSCAASGFLFSIYDMNWYRQAPGKEREWVAGITNNGYSTAYAESVKGRFTISRDNAKNTIYLQMSSLRAEDTAVYYCHADLTKAYDVEYAWGQGTLVTVKPGGGGSGGGGSEVQLVESGGGEVQPGGSLRLSCAASRSSGIDVMGWYRQAPGKERELVAEISGVGDTNYAASLADRFTVSRDNAKNTVYLQMSSLRAEDTAVYYCNAHSFLDLVGAWGQGTLVTVKPLEKTGGGGSAQKITQTQPGMFVQEKEAVTLDCTYDTSDPSYGLFWYKQPSSGEMIFLIYQGSYDQQNATEGRYSLNFQKARKSANLVISASQLGDSAMYFCAMSGGYTGGFKTIFGAGTRLFVKANIQNPDPAVYQLRDSKSSDKSVCLFTDFDSQTNVSQSKDSDVYITDKTVLDMRSMDFKSNSAVAWSNKSDFACANAFNNSIIPEDTFFPSSDVPCDVKLVEKSFETDTNLNFQNLLVIVLRILLLKVAGFNLLMTLRLWSS
notes: also called CD33-CLL1-TCR; CD33-CLL1 TCR
B7: VHH-TCR with a VHH added to the TRA separated by a 1xG4S; TRB-P2A-CD33.VHH-1xG4S-TRA (SEQ ID NO: 95) (TCR)
TCR beta: B2 TCR beta
TCR alpha: EVQLVESGGGEVQPGGSLRLSCAASRSSGIDVMGWYRQAPGKERELVAEISGVGDTNYAASLADRFTVSRDNAKNTVYLQMSSLRAEDTAVYYCNAHSFLDLVGAWGQGTLVTVKPGGGGSAQKITQTQPGMFVQEKEAVTLDCTYDTSDPSYGLFWYKQPSSGEMIFLIYQGSYDQQNATEGRYSLNFQKARKSANLVISASQLGDSAMYFCAMSGGYTGGFKTIFGAGTRLFVKANIQNPDPAVYQLRDSKSSDKSVCLFTDFDSQTNVSQSKDSDVYITDKTVLDMRSMDFKSNSAVAWSNKSDFACANAFNNSIIPEDTFFPSSDVPCDVKLVEKSFETDTNLNFQNLLVIVLRILLLKVAGFNLLMTLRLWSS
notes: also called VHH-TCR with 1G4S; VHH-TCR with one G4S
B8: VHH-TCR with a VHH added to the TRB separated by a marsupial mu linker (LEKT); CD33.VHH-mLNK-TRB-P2A-TRA (SEQ ID NO: 91) (TCR)
TCR beta: EVQLVESGGGEVQPGGSLRLSCAASRSSGIDVMGWYRQAPGKERELVAEISGVGDTNYAASLADRFTVSRDNAKNTVYLQMSSLRAEDTAVYYCNAHSFLDLVGAWGQGTLVTVKPLEKTDSGVTQTPKHLITATGQRVTLRCSPRSGDLSVYWYQQSLDQGLQFLIQYYNGEERAKGNILERFSAQQFPDLHSELNLSSLELGDSALYFCASSGGDGDEQFFGPGTRLTVLEDLKNVFPPEVAVFEPSKAEIAHTQKATLVCLATGFYPDHVELSWWVNGKEVHSGVSTDPQPLKEQPALNDSRYCLSSRLRVSATFWQNPRNHFRCQVQFYGLSENDEWTQDRAKPVTQIVSAEAWGRADCGITSASYHQGVLSATILYEILLGKATLYAVLVSALVLMAMVKRKDSRG
TCR alpha: AQKITQTQPGMFVQEKEAVTLDCTYDTSDPSYGLFWYKQPSSGEMIFLIYQGSYDQQNATEGRYSLNFQKARKSANLVISASQLGDSAMYFCAMSGGYTGGFKTIFGAGTRLFVKANIQNPDPAVYQLRDSKSSDKSVCLFTDFDSQTNVSQSKDSDVYITDKTVLDMRSMDFKSNSAVAWSNKSDFACANAFNNSIIPEDTFFPSSDVPCDVKLVEKSFETDTNLNFQNLLVIVLRILLLKVAGFNLLMTLRLWSS
B9: VHH-TCR with a VHH added to the TRB separated by a mu linker+G4S; CD33.VHH-mLNK.1xG4S-TRB-P2A-TRA (SEQ ID NO: 92) (TCR)
TCR beta: EVQLVESGGGEVQPGGSLRLSCAASRSSGIDVMGWYRQAPGKERELVAEISGVGDTNYAASLADRFTVSRDNAKNTVYLQMSSLRAEDTAVYYCNAHSFLDLVGAWGQGTLVTVKPLEKTGGGGSDSGVTQTPKHLITATGQRVTLRCSPRSGDLSVYWYQQSLDQGLQFLIQYYNGEERAKGNILERFSAQQFPDLHSELNLSSLELGDSALYFCASSGGDGDEQFFGPGTRLTVLEDLKNVFPPEVAVFEPSKAEIAHTQKATLVCLATGFYPDHVELSWWVNGKEVHSGVSTDPQPLKEQPALNDSRYCLSSRLRVSATFWQNPRNHFRCQVQFYGLSENDEWTQDRAKPVTQIVSAEAWGRADCGITSASYHQGVLSATILYEILLGKATLYAVLVSALVLMAMVKRKDSRG
TCR alpha: B8 TCR alpha

What was measured:
[1] = target: T1, PE labeled BCMA Fc reagent (AcroBio) (UniProt Q02223 1-54, PE label); assay: flow cytometry; PE labeled BCMA Fc staining of transduced T cells
T1 construct: not shown: Fc part of the bought reagent
T1 sequence (looked up): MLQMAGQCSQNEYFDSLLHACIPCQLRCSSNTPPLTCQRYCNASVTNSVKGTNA
Description: T cells were interrogated for cell surface CAR expression using flow cytometry. T cells were stained using a PE labeled BCMA Fc reagent (AcroBio). […] IL2 secretion of scFv-TCR was greater than anti-BCMA CAR in coculture with medium and low BCMA expressing cell lines (FIG. 21C). […] For Live-cell imaging by IncuCyte was used to analyze tumor cell growth of HT1080.BCMA stably transduced with red reporter. The HT1080.BCMA cells grew in the presence of UTD T cells and MAGEA4 TCR-T cells.

[2] = target: human CD33 on tumor cells (A549.CD33; A549 electroporated with CD33 mRNA; HL-60, Kasumi1, OCI-AML3) (human, UniProt P20138 18-364); assay: cell-based or functional assay
Sequence of human CD33 on tumor cells (A549.CD33; A549 electroporated with CD33 mRNA; HL-60, Kasumi1, OCI-AML3) (P20138 18-364): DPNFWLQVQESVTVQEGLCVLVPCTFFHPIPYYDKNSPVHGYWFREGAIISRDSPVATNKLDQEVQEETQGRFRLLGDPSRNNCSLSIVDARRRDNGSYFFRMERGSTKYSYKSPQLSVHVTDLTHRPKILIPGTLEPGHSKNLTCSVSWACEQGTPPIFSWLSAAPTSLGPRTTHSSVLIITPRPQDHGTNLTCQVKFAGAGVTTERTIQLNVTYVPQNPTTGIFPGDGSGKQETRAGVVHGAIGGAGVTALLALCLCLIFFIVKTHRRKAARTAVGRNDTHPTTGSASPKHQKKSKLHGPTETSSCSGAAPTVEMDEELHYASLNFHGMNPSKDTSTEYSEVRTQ

[3] = target: MAGEA4 peptide presented by HLA-A2 on tumor cells (A549 transduced with MAGEA4 and HLA-A2; A549 pulsed with …); assay: cell-based or functional assay
[4] = target: T2, His labeled CD33-Fc reagent (Acros) (UniProt P20138 18-259); assay: flow cytometry; CD33-Fc staining of transduced T cells, APC labeled streptavidin secondary
T2 construct: Secondary staining was with APC labeled streptavidin; not shown: Fc part and His label of the bought reagent
T2 sequence (P20138 18-259): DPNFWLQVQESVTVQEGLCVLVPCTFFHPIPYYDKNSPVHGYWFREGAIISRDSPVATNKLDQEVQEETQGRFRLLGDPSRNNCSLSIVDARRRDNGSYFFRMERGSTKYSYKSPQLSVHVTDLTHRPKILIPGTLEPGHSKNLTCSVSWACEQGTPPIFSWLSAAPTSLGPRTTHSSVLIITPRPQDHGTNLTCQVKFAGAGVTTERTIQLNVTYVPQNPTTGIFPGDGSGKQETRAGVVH

Binder | interferon gamma production [2] [fold] | binding result [4] | also measured
B1 | – | – | binding result [1]: binds
B2 | > 2 | – | interferon gamma production [3]: ~3 fold
B3 | – | – | binding result [1]: binds
B4 | – | – | interferon gamma production [3]: ~3 fold
B5 | – | binds | –
B6 | – | binds | –
B7 | – | binds | –
B8 | > 2 | – | –
B9 | > 2 | – | –
